Assays:
[1] = molecular target: Trastuzumab (glycan-intact) (Homo sapiens)

Row | Substance | % DOL 2 (fraction of antibody fully modified with 3-APA, LC-MS) (Panitumumab) | % DOL 2 (fraction of antibody fully modified with 3-APA, LC-MS) (Pertuzumab) | % DOL 2 (fraction of antibody fully modified with 3-APA, LC-MS) [1]
1 | recombinant Microbial transglutaminase from Zedira (catalog number T001) (enzyme) | 69% | 100% | –
2 | Activa TI microbial transglutaminase (Ajinomoto) (enzyme) | – | – | 81%

Reference: patent publication US20210363177A1
